# Test results from US8691225B2, “Antibodies against the ectodomain of ErbB3 and uses thereof” (Merrimack Pharmaceuticals, Inc., priority 2007, dated 2014).
# Read-outs that look alike come from different tables or passages of the source.
# Assays:
# [1] = target: T1, ErbB3 in MALME-3M cells (Homo sapiens, UniProt P21860); assay: total ErbB3 levels in MALME-3M cells in vitro by ELISA; type: cell-based; settings: 24 hours
# T1 construct: ErbB3 expressed on MALME-3M melanoma cells; host or cells: MALME-3M melanoma cells
# Procedure: MALME-3M cells are seeded in 96 well tissue culture plates and grown in RPMI-1640 media supplemented with antibiotics, 2 mM L-glutamine and 10% fetal bovine serum (FBS) for 24 hours at 37° C. and 5% carbon dioxide. Media are then switched to the same medium without FBS and with and without the antibody at concentrations of 1 uM, 250 nM, 63 nM, 16 nM, 4.0 nM, 1.0 nM, 240 pM, 61 pM and 15 pM. Medium containing no FBS or antibody is used as control. Cells are grown for 24 hours at 37° C. and 5% carbon dioxide, washed with cold PBS, then harvested with mammalian protein extract (MPER) lysis buffer (Pierce, 78505) to which 150 mM NaCl, 5 mM sodium pyrophosphate, 10 uM bpV (phen), 50 uM phenylarsine, 1 mM sodium orthovanadate, and protease inhibitor cocktail (Sigma, P2714) is added. Cell lysates are diluted two-fold with 4% bovine serum albumin in PBST (0.1% tween-20), then analyzed by ELISA with mouse anti-human ErbB3 capture antibody and biotinylated mouse anti-human ErbB3 secondary detection antibody. Signal is generated with streptavidin conjugated to horseradish-peroxidase reacted with SUPERSIGNAL ELISA Pico chemiluminescent substrate (Pierce, 37070). ELISAs are quantitated using a luminometer.
# [2] = test system: heregulin-mediated phosphorylation of ErbB3 and AKT in MALME-3M cells; assay: heregulin-mediated signaling ELISA (pErbB3, pAKT); type: cell-based, human; settings: for IC50: IgG2 isotype, 5 nM HRG
# Procedure: (§1) MALME-3M cells and OVCAR8 cells are separately seeded in 96 well tissue culture plates (35,000 cells per well) and grown in RPMI-1640 media supplemented with antibiotics, 2 mM L-glutamine and 10% FBS for 24 hours at 37° C. and 5% carbon dioxide. Cells are serum-starved in RPMI-1640 media with antibiotics and 2 mM L-glutamine for 24 hours at 37° C. and 5% carbon dioxide. […] Controls are HRG without added antibody and untreated cells (no HRG and no Ab). Cells are washed with cold PBS then harvested with mammalian protein extract (M-PER) lysis buffer (Pierce, 78505) containing 150 mM NaCl, 5 mM sodium pyrophosphate (Sigma, 221368-100G), 10 uM bpV(phen) (Calbiochem, 203695), 50 μM oxophenylarsine (Calbiochem, 521000), 1 mM sodium orthovanadate (Sigma, 56508-10G), and protease inhibitor cocktail (Sigma, P2714). Cell lysates are diluted two-fold with 4% bovine serum albumin in PBST (0.2% tween-20), then analyzed by ELISA for phosphorylation of either ErbB3, or AKT (a downstream effector of ErbB3).
# (§2) In order to test for AKT phosphorylation, lysates are run on an ELISA plate with a capture antibody specific to AKT and biotinylated detection antibody specific to phospho-serine 473 of phospho-AKT (pAKT). Signal is generated with streptavidin conjugated to horseradish-peroxidase reacted with SUPERSIGNAL ELISA Pico chemiluminescent substrate (Pierce, 37070). In order to assay for ErbB3 phosphorylation, lysates are run on an ELISA plate with a capture antibody specific for ErbB3 and an anti-phosphotyrosine detection antibody conjugated to horseradish-peroxidase. This is then reacted with the same chemiluminescent substrate. Luminescent signal on the ELISAs is measured using a luminometer.
# [3] = test system: heregulin-mediated phosphorylation of ErbB3 and AKT in OVCAR8 cells; assay: heregulin-mediated signaling ELISA (pErbB3, pAKT); type: cell-based, human; settings: for IC50: IgG2 isotype, 5 nM HRG
# Procedure: as §1, §2
# [4] = test system: COLO-357 cells; assay: VEGF secretion assay (VEGF ELISA); type: cell-based, human; settings: untreated and HRG treated COLO-357
# Description: (§3) In contrast, HRG is able to induce more than a doubling of VEGF secretion in MCF-7 and T47D cells.
# [5] = test system: MCF-7 cells; assay: VEGF secretion assay (VEGF ELISA); type: cell-based, human; settings: untreated and HRG treated MCF-7
# Description: as §3
# [6] = target: T2, ErbB2/3 complex in AdrR cells (Homo sapiens, UniProt P21860); assay: ErbB2-ErbB3 protein complex formation (immunoprecipitation, blot); type: cell-based; settings: 250 nM Ab #6, 10 nM HRG
# T2 construct: host or cells: AdrR ovarian cancer cells
# Procedure: The cells are lysed in 25 mM Tris, pH+7.5, 150 mM NaCl, 1 mM EDTA, 1.0% Triton X-100, 1.0% CHAPS, 10% v/v glycerol, containing 0.2 mM PMSF, 50 mTU/mL aprotinin, and 100 uM leupeptin, and the crude lysate are centrifuged briefly to remove insoluble material. Supernatant is transferred to a new EPPENDORF tube, and anti-ErbB3 antibody (Santa Cruz sc-285) is added at 1:500 dilution. Supernatants are incubated overnight with gentle shaking at 4 C. 60 ul of Immobilized Protein A/G agarose beads (Pierce, Rockford, Ill., #20421) is first washed with 1× PBS. The cell lysate-antibody mixture is added to the PBS washed beads, and incubated for 2 hours with gentle shaking at 4° C. The immunoprecipitates are then washed with ice-cold lysis buffer 3 times, resuspended in 30 ul of 2× SDS sample buffer, heat denatured at 95° C. for 7 minutes and run on 4-12% Bis-Tris Gels. SDS-PAGE and electro-transferred to PVDF membrane in Tri-Glycine buffer with 10% MeOH. […] The signal is detected using goat anti-rabbit IRDye800® infrared fluorescent dye-conjugated secondary antibody at 1:5000 (2 ul) in 10 ml of blocking buffer (Li-Cor Biosciences, #927-40000).
molecule,measurement,setting,value
"Ab #6: human anti-ErbB3 antibody from Fab-phage library, CDRs SEQ ID NOs:7-12; used as IgG1 and IgG2 isotypes; in phase I trials as MM-121 (antibody, V domains shown) VH: EVQLLESGGGLVQPGGSLRLSCAASGFTFSHYVMAWVRQAPGKGLEWVSSISSSGGWTLYADSVKGRFTISRDNSKNTLYLQMNSLRAEDTAVYYCTRGLKMATIFDYWGQGTLVTVSS VL: QSALTQPASVSGSPGQSITISCTGTSSDVGSYNVVSWYQQHPGKAPKLIIYEVSQRPSGVSNRFSGSKSGNTASLTISGLQTEDEADYYCCSYAGSSIFVIFGGGTKVTVL",decrease of total ErbB3 levels,[1],about 46.9%
same,extent of inhibition of phosphorylation of AKT and ErbB3,"[2]; FIGS. 16A-D, MALME-3M cells and OVCAR8 cells",essentially complete inhibiton
same,inhibition of heregulin-mediated signaling,[2]; MALME-3M cells,potent inhibitor of heregulin-mediated signaling
same,IC50,"[2]; MALME-3M cells, read-out: IC50, heregulin-mediated phosphorylation of ErbB3",15 nM
same,IC50,"[2]; MALME-3M cells, read-out: IC50, phosphorylation of AKT",11 nM
same,inhibition of heregulin-mediated signaling,[3],potent inhibitor of heregulin-mediated signaling
same,IC50,"[3]; read-out: IC50, heregulin-mediated phosphorylation of ErbB3",24 nM
same,IC50,"[3]; read-out: IC50, phosphorylation of AKT",67 nM
same,inhibition of VEGF secretion,[4],potent inhibitory effect at high levels in all three cell lines with the highest being in COLO-357
same,inhibition of VEGF secretion,[5],potent inhibitory effect at high levels in all three cell lines
same,inhibition of HRG stimulated ErbB2/3 complex formation,[6],completely inhibit HRG stimulated ErbB2/3 complex formation
